Measurements published in paper PMC7595419.

Molecular target: SicA-His6 (Salmonella enterica serovar Typhimurium) (UniProt P69066)
Assay: EMSA

Chain of SicA-His6 (Salmonella enterica serovar Typhimurium) (P69066 whole entry): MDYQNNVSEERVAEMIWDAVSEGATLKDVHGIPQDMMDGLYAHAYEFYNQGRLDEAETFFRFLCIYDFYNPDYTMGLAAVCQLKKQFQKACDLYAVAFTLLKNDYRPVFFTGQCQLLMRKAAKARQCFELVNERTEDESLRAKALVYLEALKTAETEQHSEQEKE

ATAGGATCCCGTTGTATAAGGTTTTTTGTAGGCTTTTAAAAGCCTCCTGGGTTTTTAGTGAAGCTGAGTGATAGAAGCTCTGTATTTGCATAGCGTTTTTAATATTCCTGAATAGGGGAGTGGGAACATTCAACAGGGTTAACAACCCTTTAAAAGGATGTGACTTTTATGCACCAGGAACTTTAAAAAAATGTCCTTTTTAATGAGGAAACGCTTCTGATCAGGCGGGGAGGCATCCTGACGTCCATACGTAGTGGCGATCATGGGGGAGATCGGTACATCAAATGTCTAGATAT (double strand) [sopB regulatory region (-200 to +79)]
binding: no binding
